According to publication PMC9130954:

Experiments:
[1] = molecular target: Photosystem I (PSI) complex from Anabaena sp. PCC 7120, the monomeric unit of the PSI oligomers (Anabaena sp. PCC 7120 (endogenous)) (UniProt P58576); experiment: negative staining EM, single-particle 2D class averaging; purified PSI tetramer sample, 0.15 mg/ml, 0.75% uranyl formate, 120 kV; 359 particles; PSI tetramer structure as reference
[2] = molecular target: Photosystem I (PSI) complex from Anabaena sp. PCC 7120, the monomeric unit of the PSI oligomers (Anabaena sp. PCC 7120 (endogenous)) (UniProt P58576); experiment: negative staining EM, single-particle 2D class averaging; purified supercomplex 2 sample, 0.27 mg/ml, 0.75% uranyl formate, 120 kV; 822 particles; PSI tetramer models rigidly fitted over the 2D map
[3] = molecular target: Photosystem I (PSI) complex from Anabaena sp. PCC 7120, the monomeric unit of the PSI oligomers (Anabaena sp. PCC 7120 (endogenous)) (UniProt P58576); experiment: negative staining EM, single-particle 2D class averaging; purified supercomplex 1 sample, 0.19 mg/ml, 0.75% uranyl formate, 120 kV; 2,518 particles; PSI tetramer and dimer models rigidly fitted over the 2D map
[4] = molecular target: Photosystem I (PSI) complex from Anabaena sp. PCC 7120, the monomeric unit of the PSI oligomers (Anabaena sp. PCC 7120 (endogenous)) (UniProt P58576); experiment: cryo-EM structure; PSI supercomplex 2 purified by BN-PAGE and re-extraction (buffer A with 0.03% digitonin), about 2.5 mg/ml, fos-choline-8 at 1.0 mM added before blotting; single-particle map at 7.0 Å overall, no symmetry (C1); published PSI dimer (PDB 6K61) and tetramer (PDB 6TCL) models fitted as rigid bodies

- stoichiometry N [1]: 4
- stoichiometry N [2]: 8
- stoichiometry N [4]: 8
Substance: Photosystem I (PSI) complex from Anabaena sp. PCC 7120, the monomeric unit of the PSI oligomers (from UniProt P58576 1-752; P58565 1-741; P58564 24-164; P58583 1-86; P58577 1-172; Q8YNB0 1-32)
- stoichiometry N [3]: 6
